T1: binding of LAG-3 to MHC class II molecules (293T-hLAG-3 cells / Raji cells) (Homo sapiens, UniProt P18627)
T1 construct: expressed in transfected cells; host or cells: 293T cells, transient transfection (Lipofectamine 2000)
T1 sequence (P18627 23-525): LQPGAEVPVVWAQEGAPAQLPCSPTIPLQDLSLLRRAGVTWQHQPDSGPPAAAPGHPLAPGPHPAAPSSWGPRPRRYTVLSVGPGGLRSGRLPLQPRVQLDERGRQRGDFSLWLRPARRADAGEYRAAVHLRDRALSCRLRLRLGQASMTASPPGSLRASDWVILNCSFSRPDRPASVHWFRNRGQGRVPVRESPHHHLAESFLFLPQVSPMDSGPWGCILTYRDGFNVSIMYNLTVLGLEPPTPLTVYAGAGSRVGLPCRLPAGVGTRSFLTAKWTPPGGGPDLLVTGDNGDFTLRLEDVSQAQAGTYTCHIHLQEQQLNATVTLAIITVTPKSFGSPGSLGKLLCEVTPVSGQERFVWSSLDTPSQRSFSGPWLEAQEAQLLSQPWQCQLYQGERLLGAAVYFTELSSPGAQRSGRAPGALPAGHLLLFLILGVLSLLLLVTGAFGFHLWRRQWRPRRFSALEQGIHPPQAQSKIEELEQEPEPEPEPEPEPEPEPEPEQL

T2: human PHA blasts expressing LAG-3 (Homo sapiens, UniProt P18627)
T2 construct: To human PBMCs stimulated with 2 μg/mL of PHA (manufactured by Sigma-Aldrich) for three days; endogenous in cells; host or cells: human PBMCs stimulated with PHA for three days (PHA blasts)
T2 sequence (P18627 23-525): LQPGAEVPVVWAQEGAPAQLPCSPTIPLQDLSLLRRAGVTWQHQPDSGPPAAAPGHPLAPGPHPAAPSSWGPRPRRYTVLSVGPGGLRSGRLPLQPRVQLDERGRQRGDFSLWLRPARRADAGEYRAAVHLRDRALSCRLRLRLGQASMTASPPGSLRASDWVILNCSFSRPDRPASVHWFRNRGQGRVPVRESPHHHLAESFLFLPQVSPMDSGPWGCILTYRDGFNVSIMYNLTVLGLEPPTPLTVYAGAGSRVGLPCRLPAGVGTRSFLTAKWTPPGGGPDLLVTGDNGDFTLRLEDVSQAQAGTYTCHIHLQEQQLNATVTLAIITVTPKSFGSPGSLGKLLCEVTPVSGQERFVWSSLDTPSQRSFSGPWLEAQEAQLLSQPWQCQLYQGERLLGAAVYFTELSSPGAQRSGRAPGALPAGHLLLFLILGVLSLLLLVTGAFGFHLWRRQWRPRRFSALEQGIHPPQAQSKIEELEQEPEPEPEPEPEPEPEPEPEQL


Assays:
[1] = molecular target: T1, binding of LAG-3 to MHC class II molecules (293T-hLAG-3 cells / Raji cells); test: 293T-hLAG-3/Raji cell adhesion test; assay type: cell-based; conditions: 10 μg/mL
From the text: In the LAG-3/MHC class II binding test according to Example 2)-3, the binding of the secondary antibody Anti-Human IgG PE conjugate for detecting binding of LAG-3-Fc to Raji cells could be inhibited by steric hindrance caused by binding of the anti-LAG-3 antibody to LAG-3-Fc, and thus the possibility of apparently showing a low fluorescence intensity cannot be completely excluded, despite the antibody not actually directly inhibiting the binding of LAG-3/MHC class II. Therefore, as an evaluation system without using a secondary antibody for detection, the following 293T-hLAG-3/Raji cell adhesion test system was constructed to evaluate the antibody.
Human LAG-3 expression plasmid pcDNA3.1/hLAG-3 was introduced into 293T cells using Lipofectamine 2000 (manufactured by Life Technologies Corp.), and the cells were inoculated onto a BioCoat poly-D-lysine-coated 96-well microplate (manufactured by Becton, Dickinson and Company) and cultured overnight. Meanwhile, Raji cells were labeled in a medium (RPMI1640 containing 10% FBS) with fluorescent dye BCECF-AM (manufactured by DOJINDO LABORATORIES, used at 10 μM) at 37° C. for 1 hour, followed by washing and then suspending in a medium to 1.6×10^6 cells/mL. After the transfection, the medium of the cells (293T-hLAG-3 cells) cultured overnight was removed, and 50 μL/well of a medium and 25 μL/well of an antibody solution were added thereto, followed by pre-incubation at 37° C. for 30 minutes. Thereafter, 25 μL/well of the BCECF-AM labeled Raji cells was added thereto, followed by centrifugation at 900 rpm for 30 seconds and incubation at 37° C. for 1 hour. After the reaction, the well was washed with medium two to three times to remove nonadherent cells, and the cells were lysed in 100 µL/well of a Tris buffer (25 mM, pH 8.0) containing 0.1% NP-40, to measure the fluorescence intensity of the well with a plate reader (ENVISION: manufactured by PerkinElmer Inc). The percentage of inhibition was calculated by the following formula.
Percentage of inhibition (%)=100−(A−B)/(C−B)×100 • A: Fluorescence intensity of each sample well • B: Fluorescence intensity of background
When adding the Raji cells and the antibody, a medium was added thereto. Except for that, the same operation as in the sample well was performed. • C: Fluorescence intensity of maximum binding
When adding the antibody, a medium was added thereto.

[2] = molecular target: T2, human PHA blasts expressing LAG-3; test: Binding activity to activated human T cells (PHA blasts) by flow cytometry; conditions: mean fluorescence intensity
Protocol: It was further confirmed by flow cytometry that the antibody produced by the hybridomas determined to be positive by the Cell-ELISA in Example 1)-3 binds to PHA (phytohemagglutinin) activated human T cells (PHA blasts), a more physiologically relevant cell type expressing LAG-3. To human PBMCs stimulated with 2 μg/mL of PHA (manufactured by Sigma-Aldrich) for three days, was added a hybridoma culture supernatant for suspension, followed by reaction at 4° C. for 30 minutes. After washing with a FACS buffer (PBS, 0.1% BSA, and 0.1% sodium azide), a secondary antibody such as an Anti-Rat IgG PE conjugate (manufactured by Jackson ImmunoResearch Laboratories, Inc.) diluted 200-fold with a FACS buffer comprising a LIVE/DEAD Fixable Dead Cell Stain Kit-near-IR fluorescent reactive dye (manufactured by Invitrogen Corp.) was added thereto for suspension, followed by standing at 4° C. for 30 minutes. After washing with a FACS buffer, the cells were resuspended in PBS containing 1 to 2% paraformaldehyde, followed by detection using a flow cytometer (CantoII: manufactured by Becton, Dickinson and Company or FC500: manufactured by Beckman Coulter Inc.). The data was analyzed using FlowJo (manufactured by Tree Star Inc). After removal of the LIVE/DEAD Fixable Dead Cell Stain Kit-near-IR fluorescent reactive dye-positive dead cells by gating, a histogram of the fluorescence intensity of the living cells was plotted.
The binding activity of the rat anti-human LAG-3 antibodies rLA204, rLA212, rLA225, rLA869, and rLA1264 purified by the method described in Example 1)-7 to activated human T cells was investigated.

inhibitory activity in the 293T-hLAG-3/Raji cell adhesion test [1]	Molecule	binding to activated human T cells (PHA blasts) [2]
almost no inhibitory activity	rLA204: anti-human LAG-3 rat monoclonal antibody; heavy chain variable region SEQ ID No: 2, light chain variable region SEQ ID No: 4 (antibody, listed as Rattus norvegicus, V domains shown) VH: EVELVESGGGLVQPGRSMKLSCAASGFTFRTYGMAWVRQAPTKGLEWVASISTGGGSTYYRDSVKGRFTISRDNAKSTLYLQMDSLRSEDTATYYCTTDLINYPGIGGFAFWGQGTLVTVSS VL: NIVMTQSPKSMSISVGDRVTMNCKASQNVYNNIAWYQQKPGKSPKLLIYYASNRYTGVPDRFTGSGSGTDFTLTIHSVQAEDAAFYYCQRLYNSPPTFGGGTKLELKRA	bound to PHA blasts prepared as in vitro activated human T cells in a concentration-dependent manner
almost no inhibitory activity	rLA869: anti-human LAG-3 rat monoclonal antibody; heavy chain variable region SEQ ID No: 14, light chain variable region SEQ ID No: 16 (antibody, listed as Rattus norvegicus, V domains shown) VH: EVQLVESGGGLVQPGRSLKLSCAASGFTYRTYVMAWVRQGPTQGLEWVASISTGGVSTYYRDSVKGRFTISRDNAKNTLYLQMDSLRSEDTATYYCAKDMLNGYNSQGLFDYWGQGVMVTVSS VL: NIVMTQSPKSMSISVGDRVTMNCRASQNVDNTIAWYQQKPGQSPKLLIYFASDRYTGVPDRFTGGGYGTDFTLTINSVQAEDAAFYYCQRIYNSPLTFGSGTKLEIRRA	bound to PHA blasts prepared as in vitro activated human T cells in a concentration-dependent manner
almost no inhibitory activity	rLA212: anti-human LAG-3 rat monoclonal antibody; heavy chain variable region SEQ ID No: 6, light chain variable region SEQ ID No: 8 (antibody, listed as Rattus norvegicus, V domains shown) VH: EVQLVESGGGLVQPGRSLKLSCAASGFTYRSYVMAWVRQAPTRGLEWVASISTGGGNTYYRDSVKGRFTISRDNAKNTLYLQMDSLRSEDTATYYCAEDMSNSGYGLFDYWGQGVMVTVSS VL: NIVMTQSPKSMSISVGDRVTMNCKAGQNVDNNIAWYQKKPGQSPKLLIYYASNRNTGVPDRFTGGGYGTDFTLTINSVQAEDAAFYYCQRISNSPYTFGAGTELELKRA	bound to PHA blasts prepared as in vitro activated human T cells in a concentration-dependent manner
almost no inhibitory activity	rLA225: anti-human LAG-3 rat monoclonal antibody; heavy chain variable region SEQ ID No: 10, light chain variable region SEQ ID No: 12 (antibody, listed as Rattus norvegicus, V domains shown) VH: EVQLVESGGGLVQPGRSMKLSCVASGFTFSNYYMAWVRQAPTKGLEWVASISTGGGNTYYRDSVKGRFTISRDNAKSTLYLQMDSLRSEDTATYYCARPPYGYNYGWFTYWGQGTLVTVSS VL: DIQMTQSPASLSASLGETVTIECRASEDIHNGLVWYQQKPGKSPQLLIYNANSMHTGVPSRFSGSGSGTQYSLKINSLQSEDVASYFCQQYYNYPRTFGGGTKLELKRA	bound to PHA blasts prepared as in vitro activated human T cells in a concentration-dependent manner
almost no inhibitory activity	rLA1264: anti-human LAG-3 rat monoclonal antibody; heavy chain variable region SEQ ID No: 18, light chain variable region SEQ ID No: 20 (antibody, listed as Rattus norvegicus, V domains shown) VH: EVQLVESGGGLVQPGRSLKLSCAASGFTFSSYYMAWVRQAPTKGLEWVAYISNGGYSTYYRDSVKGRFTISRENAKSTLYLQMDSLRSEDTATYYCTITDHSGYRFTYWGQGTLVTVSS VL: DIQMTQSPSLLSASVGDRVTLSCKASQSIYNSLAWYQQKLGEAPKLLIYDANSLQTGIPSRFSGSGSGTDFTLTISSLQPEDVATYFCQKYYSGNTFGAGTKLELKRA	bound to PHA blasts prepared as in vitro activated human T cells in a concentration-dependent manner

From patent US12145987B2, “Method for depleting cytotoxic T cells using an anti-LAG-3 antibody composition” (Daiichi Sankyo Company, Limited, priority 2017, dated 2024)
